Data set [1] relates to HeLa Kyoto. Put plainly: thermal stability score vs G1/S (z-score of summed log2 fold changes over temperatures); higher = more thermally stable than in G1/S.
Data set [2] relates to HeLa Kyoto. Put plainly: solubility change mitosis vs G1/S (difference of NP-40 vs SDS log2 ratios) (log2 ratio difference); higher = more soluble in mitosis.
The test system of data set [3] is HeLa Kyoto. Nature of the data set: melting temperature (median over replicates), in situ; higher = more thermally stable.
Data set [4] deals with HeLa Kyoto. Put plainly: solubility in G1/S (NP-40 vs SDS abundance) (log2 ratio); higher = more soluble. Particulars: cell cycle stage: G1/S.
The mark [5] stands for this setting: cell cycle stage: early G1 (4.5 h after nocodazole release).
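Wherever melting temperature (median over replicates), in situ is given: HeLa Kyoto cells synchronized by double thymidine or nocodazole block, proteins quantified by TMT10plex mass spectrometry, three independent biological replicates.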
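Wherever solubility change mitosis vs G1/S (difference of NP-40 vs SDS log2 ratios) is given: synchronized HeLa Kyoto cells (double thymidine block for G1/S, nocodazole release for mitosis), protein amounts in NP-40 versus SDS lysates quantified by mass spectrometry, three biological replicates.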
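Wherever solubility in G1/S (NP-40 vs SDS abundance) is given: HeLa Kyoto cells arrested at G1/S by double thymidine block, proteins quantified by TMT10plex mass spectrometry in mild NP-40 versus SDS extracts, three biological replicates.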
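Wherever thermal stability score vs G1/S (z-score of summed log2 fold changes over temperatures) is given: synchronized HeLa Kyoto cells, proteins quantified by TMT10plex mass spectrometry, three biological replicates, mitosis taken 0.5 h after nocodazole release, G1/S directly after double thymidine block.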

As to “MAAHLVKRCTCLLREAARQAPAMAPVGRLRLAWVAHKTLTSSATSPISHLPGSLMEPVEKERASTPYIEKQVDHLIKKATRPEELLELLGGSHDLDSNQAAMVLIRLSHLLSEKPEDKGLLIQDAHFHQLLCLLNSQIASVWHGTLSKLLGSLYALGIPKASKELQSVEQEVRWRMRKLKYKHLAFLAESCATLSQEQHSQELLAELLTHLERRWTEIEDSHTLVTVMMKVGHLSEPLMNRLEDKCLELVEHFGPNELRKVLVMLAAQSRRSVPLLRAISYHLVQKPFSLTKDVLLDVAYAYGKLSFHQTQVSQRLATDLLSLMPSLTSGEVAHCAKSFALLKWLSLPLFEAFAQHVLNRAQDITLPHLCSVLLAFARLNFHPDQEDQFFSLVHEKLGSELPGLEPALQVDLVWALCVLQQAREAELQAVLHPEFHIQFLGGKSQKDQNTFQKLLHINATALLEYPEYSGPLLPASAVAPGPSALDRKVTPLQKELQETLKGLLGSADKGSLEVATQYGWVLDAEVLLDSDGEFLPVRDFVAPHLAQPTGSQSPPPGSKRLAFLRWEFPNFNSRSKDLLGRFVLARRHIVAAGFLIVDVPFYEWLELKSEWQKGAYLKDKMRKAVAEELAK [TBRG4]”, the thermal stability score in data set [1] (setting [5]) amounted to 0.141; in data set [1] (cell cycle stage: mitosis) it was 3.9. Moreover, the “solubility change mitosis (log2)” value in data set [2] is -0.127. In addition, the melting temperature worked out at 48.4 °C in data set [3] (cell cycle stage: G1/S) and 48.2 °C in data set [3] (cell cycle stage: mitosis). Further, in data set [4], the “solubility in G1/S (log2)” value was 0.123.

In the case of “MAAIGVHLGCTSACVAVYKDGRAGVVANDAGDRVTPAVVAYSENEEIVGLAAKQSRIRNISNTVMKVKQILGRSSSDPQAQKYIAESKCLVIEKNGKLRYEIDTGEETKFVNPEDVARLIFSKMKETAHSVLGSDANDVVITVPFDFGEKQKNALGEAARAAGFNVLRLIHEPSAALLAYGIGQDSPTGKSNILVFKLGGTSLSLSVMEVNSGIYRVLSTNTDDNIGGAHFTETLAQYLASEFQRSFKHDVRGNARAMMKLTNSAEVAKHSLSTLGSANCFLDSLYEGQDFDCNVSRARFELLCSPLFNKCIEAIRGLLDQNGFTADDINKVVLCGGSSRIPKLQQLIKDLFPAVELLNSIPPDEVIPIGAAIEAGILIGKENLLVEDSLMIECSARDILVKGVDESGASRFTVLFPSGTPLPARRQHTLQAPGSISSVCLELYESDGKNSAKEETKFAQVVLQDLDKKENGLRDILAVLTMKRDGSLHVTCTDQETGKCEAISIEIAS [HSPA14]”, the thermal stability score in data set [1] (setting [5]) is 1.14; in data set [1] (cell cycle stage: mitosis), 3.27. The “solubility change mitosis (log2)” value in data set [2] is -0.0832. In addition, the melting temperature in data set [3] (cell cycle stage: G1/S) and in data set [3] (cell cycle stage: mitosis) was 48.4 °C each time. Moreover, the “solubility in G1/S (log2)” value in data set [4] turned out to be 0.167.

Consider “MAALAPVGSPASRGPRLAAGLRLLPMLGLLQLLAEPGLGRVHHLALKDDVRHKVHLNTFGFFKDGYMVVNVSSLSLNEPEDKDVTIGFSLDRTKNDGFSSYLDEDVNYCILKKQSVSVTLLILDISRSEVRVKSPPEAGTQLPKIIFSRDEKVLGQSQEPNVNPASAGNQTQKTQDGGKSKRSTVDSKAMGEKSFSVHNNGGAVSFQFFFNISTDDQEGLYSLYFHKCLGKELPSDKFTFSLDIEITEKNPDSYLSAGEIPLPKLYISMAFFFFLSGTIWIHILRKRRNDVFKIHWLMAALPFTKSLSLVFHAIDYHYISSQGFPIEGWAVVYYITHLLKGALLFITIALIGTGWAFIKHILSDKDKKIFMIVIPLQVLANVAYIIIESTEEGTTEYGLWKDSLFLVDLLCCGAILFPVVWSIRHLQEASATDGKGDSMGPLQQRANLRAGSRIESHHFAQADLELLASSCPPASVSQRAGITAAINLAKLKLFRHYYVLIVCYIYFTRIIAFLLKLAVPFQWKWLYQLLDETATLVFFVLTGYKFRPASDNPYLQLSQEEEDLEMESVVTTSGVMESMKKVKKVTNGSVEPQGEWEGAV [GPR107]”, for which the thermal stability score in data set [1] (setting [5]) is 0.348; in data set [1] (cell cycle stage: mitosis), -0.468. Also, in data set [2], the “solubility change mitosis (log2)” value was -0.385. Moreover, the melting temperature in data set [3] (cell cycle stage: mitosis) came to 53.4 °C. The “solubility in G1/S (log2)” value in data set [4] is -0.0201.

As to “MAALKSWLSRSVTSFFRYRQCLCVPVVANFKKRCFSELIRPWHKTVTIGFGVTLCAVPIAQKSEPHSLSSEALMRRAVSLVTDSTSTFLSQTTYALIEAITEYTKAVYTLTSLYRQYTSLLGKMNSEEEDEVWQVIIGARAEMTSKHQEYLKLETTWMTAVGLSEMAAEAAYQTGADQASITARNHIQLVKLQVEEVHQLSRKAETKLAEAQIEELRQKTQEEGEERAESEQEAYLRED [DIABLO]”, the thermal stability score in data set [1] (setting [5]) is -0.685; in data set [1] (cell cycle stage: mitosis) it was -1.02. For the same sequence, the “solubility change mitosis (log2)” value in data set [2] came out at 0.345. The figures for the melting temperature in data set [3] (cell cycle stage: G1/S) and in data set [3] (cell cycle stage: mitosis) were 54.9 °C and 53.3 °C, respectively. Also, the “solubility in G1/S (log2)” value in data set [4] is -0.173.

Turning to “MAALVRPARFVVRPLLQVVQAWDLDARRWVRALRRSPVKVVFPSGEVVEQKRAPGKQPRKAPSEASAQEQREKQPLEESASRAPSTWEESGLRYDKAYPGDRRLSSVMTIVKSRPFREKQGKILLEGRRLISDALKAGAVPKMFFFSRLEYLKELPVDKLKGVSLIKVKFEDIKDWSDLVTPQGIMGIFAKPDHVKMTYPKTQLQHSLPLLLICDNLRDPGNLGTILRSAAGAGCSKVLLTKGCVDAWEPKVLRAGMGAHFRMPIINNLEWETVPNYLPPDTRVYVADNCGLYAQAEMSNKASDHGWVCDQRVMKFHKYEEEEDVETGASQDWLPHVEVQSYDSDWTEAPAAVVIGGETYGVSLESLQLAESTGGKRLLIPVVPGVDSLNSAMAASILLFEGKRQLRGRAEDLSRDRSYH [RNMTL1]”, the thermal stability score in data set [1] (setting [5]) was -0.281; in data set [1] (cell cycle stage: mitosis), -1.34. Further, the “solubility change mitosis (log2)” value in data set [2] is 0.163. Moreover, the values for the melting temperature in data set [3] (cell cycle stage: G1/S) and in data set [3] (cell cycle stage: mitosis) were 53.2 °C and 52.1 °C, respectively. In data set [4], the “solubility in G1/S (log2)” value is -0.452.

With “MAAMRKALPRRLVGLASLRAVSTSSMGTLPKRVKIVEVGPRDGLQNEKNIVSTPVKIKLIDMLSEAGLSVIETTSFVSPKWVPQMGDHTEVLKGIQKFPGINYPVLTPNLKGFEAAVAAGAKEVVIFGAASELFTKKNINCSIEESFQRFDAILKAAQSANISVRGYVSCALGCPYEGKISPAKVAEVTKKFYSMGCYEISLGDTIGVGTPGIMKDMLSAVMQEVPLAALAVHCHDTYGQALANTLMALQMGVSVVDSSVAGLGGCPYAQGASGNLATEDLVYMLEGLGIHTGVNLQKLLEAGNFICQALNRKTSSKVAQATCKL [HMGCL]”, the thermal stability score was 0.275 in data set [1] (setting [5]) and 0.372 in data set [1] (cell cycle stage: mitosis). In addition, in data set [2], the “solubility change mitosis (log2)” value was -0.047. In addition, the melting temperature in data set [3] (cell cycle stage: G1/S) came out at 54.1 °C; in data set [3] (cell cycle stage: mitosis), 53.9 °C. The “solubility in G1/S (log2)” value in data set [4] turned out to be 0.536.

The values are drawn from the supplement of paper PMC5998384.
